Measured values published in PMC13290226, “Intraflagellar transport protein IFT172 contains a C-terminal ubiquitin-binding U-box-like domain involved in ciliary signaling” (eLife, 2026).

Experiments:
Assay in all cases: pull-down; GST-tagged HsIFT172 constructs (10 μM; 5 μM in Figure 4C) immobilised on GSH beads; prey 20 μM UbcH5a~Ub or 15-25 μM tetra-ubiquitin in 50 mM Tris pH 7.5, 100 mM NaCl, 1 mM DTT, 4 °C, 2 hr; eluted with glutathione; Coomassie and anti-ubiquitin western blot
Details in all cases: both partners purified
[1] = biological target: T1, UbcH5a_(C85S)~Ub conjugate (WT) (human, UniProt P51668 1-147; P0CG48 1-76, C85S, oxyester link from Ser85 (C85S) to ubiquitin | oxyester-linked to UbcH5a Ser85)
T1 construct: Homo sapiens UbcH5a (E2 enzyme), full length, active site cysteine mutated to serine; Homo sapiens ubiquitin; Protocol adapted from Middleton et al., 2014; also called WT UbcH5a~Ub conjugate; E2~Ub conjugate

[2] = biological target: T2, UbcH5a_(C85S)~Ub conjugate, UbcH5a F62A (human, UniProt P51668 1-147; P0CG48 1-76, C85S | F62A, oxyester link from Ser85 (C85S) to ubiquitin | oxyester-linked to UbcH5a Ser85)
T2 construct: Homo sapiens UbcH5a, full length, C85S and F62A; Homo sapiens ubiquitin; source: in vitro charging reaction of proteins purified from E. coli, purified

[3] = biological target: T3, UbcH5a_(C85S)~Ub conjugate, UbcH5a A96D (human, UniProt P51668 1-147; P0CG48 1-76, C85S | A96D, oxyester link from Ser85 (C85S) to ubiquitin | oxyester-linked to UbcH5a Ser85)
T3 construct: Homo sapiens UbcH5a, full length, C85S and A96D; Homo sapiens ubiquitin; source: in vitro charging reaction of proteins purified from E. coli, purified

Measured: binding result

B1: GST-tagged HsIFT172C2 (His-GST-TEV-HsIFT172_(1470-C)) (domain or fragment, human, UniProt Q9UG01 1470-1749, looked up)
chain: GAPANPQNFNIYKRIFTDMVSSPGTNCAEAYHSWADLRDVLFNLCENLVKSSEANSPAHEEFKTMLLIAHYYATRSAAQSVKQLETVAARLSVSLLRHTQLLPVDKAFYEAGIAAKAVGWDNMAFIFLNRFLDLTDAIEEGTLDGLDHSDFQDTDIPFEVPLPAKQHVPEAEREEVRDWVLTVSMDQRLEQVLPRDERGAYEASLVAASTGVRALPCLITGYPILRNKIEFKRPGKAANKDNWNKFLMAIKTSHSPVCQDVLKFISQWCGGLPSTSFSFQ
notes: also called GST-HsIFT172C2; source: E. coli BL21 (DE3), purified (Ni-NTA, Q anion exchange, SEC); not shown: GST, N-terminal, kept
binds: [1] | [2] | [3]
